Measurements: US20080261903

What was measured:
[1] = biological target: T1, MEK2, P36507
T1 chain: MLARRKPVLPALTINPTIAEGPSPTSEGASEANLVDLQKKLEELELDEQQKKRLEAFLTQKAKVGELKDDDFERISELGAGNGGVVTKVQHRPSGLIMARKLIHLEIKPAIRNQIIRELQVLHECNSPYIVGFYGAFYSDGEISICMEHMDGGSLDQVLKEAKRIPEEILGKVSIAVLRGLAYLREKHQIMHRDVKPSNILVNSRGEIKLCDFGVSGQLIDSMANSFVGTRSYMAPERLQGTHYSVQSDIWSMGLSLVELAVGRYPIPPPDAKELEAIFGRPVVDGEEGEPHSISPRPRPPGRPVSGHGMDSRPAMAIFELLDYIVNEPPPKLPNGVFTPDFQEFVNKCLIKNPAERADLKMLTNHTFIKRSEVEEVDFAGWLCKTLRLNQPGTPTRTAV

[2] = biological target: T2, MKK6, P52564
T2 chain: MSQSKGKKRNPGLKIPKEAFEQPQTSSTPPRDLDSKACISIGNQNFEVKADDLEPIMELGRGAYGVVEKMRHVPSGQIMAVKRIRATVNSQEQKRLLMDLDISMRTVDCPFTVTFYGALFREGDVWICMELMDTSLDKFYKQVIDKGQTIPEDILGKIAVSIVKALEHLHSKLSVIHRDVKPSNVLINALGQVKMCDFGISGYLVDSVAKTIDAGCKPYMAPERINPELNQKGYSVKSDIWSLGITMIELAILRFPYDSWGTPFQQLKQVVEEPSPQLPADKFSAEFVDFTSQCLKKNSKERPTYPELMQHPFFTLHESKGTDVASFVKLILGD

[3] = biological target: T3, MKK4, P45985
T3 chain: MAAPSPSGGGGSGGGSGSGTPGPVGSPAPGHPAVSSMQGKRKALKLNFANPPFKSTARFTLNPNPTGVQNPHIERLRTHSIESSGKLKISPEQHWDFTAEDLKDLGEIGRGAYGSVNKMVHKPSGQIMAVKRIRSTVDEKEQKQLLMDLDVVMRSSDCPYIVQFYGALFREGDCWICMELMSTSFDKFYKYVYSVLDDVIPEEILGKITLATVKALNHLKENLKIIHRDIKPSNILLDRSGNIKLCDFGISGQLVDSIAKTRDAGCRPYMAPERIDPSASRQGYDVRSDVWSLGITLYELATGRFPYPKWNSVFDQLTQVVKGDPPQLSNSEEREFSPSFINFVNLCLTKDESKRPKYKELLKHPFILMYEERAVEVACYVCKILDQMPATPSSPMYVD

B1: FLAG-tagged RC Kinase polypeptide (human RC Kinase variant 1, SEQ ID NO: 7, with a FLAG epitope at its amino terminal) (protein)
chain: SKKQQLLDILMSSMPKPERHAESLLDICHDTNSSPTDLMTVTKNQNIILQSISRSEEFDQDGDCSHSTLVNEEEDPSGGRQDWQPRTEEFSTSHMKYSGRSIKFLLPPLSLLPTRSGVLTIPQNHKFPKEKERNIPSLTSFVPKLSVSVRQSDELSPSNEPPGALVKSLMDPTLRSSDGFIWSRNMCSFPKTNHHRQCLEKEENWKSKEIEECNKIEITHFEKGQSLVSFENLKEGNIPAVREEDIDCHGSKTRKPEEENSQYLSSRKNESSVAKNYEQDPEIVCTIPSKFQETQHSEITPSQDEEMRNNKAASKRVSLHKNEAMEPNNILEECTVLKSLSSVVFDDPIDKLPEGCSSMETNIKISIAERAKPEMSRMVPLIHITFPVDGSPKEPVIAKPSLQTRKGTIHNNHSVNIPVHQENDKHKMNSHRSKLDSKTKTSKKTPQNFVISTEGPIKPTMHKTSIKTQIFPALGLVDPRPWQLPRFQKKMPQIAKKQSTHRTQKPKKQSFPCICKNPGTQKSCVPLSVQPTEPRLNYLDLKYSDMFKEINSTANGPGIYEMFGTPVYCHVRETERDENTYYREICSAPSGRRITNKCRSSHSERKSNIRTRLSQKKTHMKCPKTSFGIKQEHKVLISKEKSSKAVHSNLHDIENGDGISEPDWQIKSSGNEFLSSKDEIHPMNLAQTPEQSMKQNEFPPVSDLSIVEEVSMEESTGDRDISNNQILTTSLRDLQELEELHHQIPFIPSEDSWAVPSEKNSNKYVQQEKQNTASLSKVNASRILTNDLEFDSVSDHSKTLTNFSFQAKQESASSQTYQYWVHYLDHDSLANKSITYQMFGKTLSGTNSISQEIMDSVNNEELTDELLGCLAAELLALDEKDNNSCQKMANETDPENLNLVLRWRGSTPKEMGRETTKVKIQRHSSGLRIYDREEKFLISNEKKIFSENSLKSEEPILWTKGEILGKGAYGTVYCGLTSQGQLIAVKQVALDTSNKLAAEKEYRKLQEEVDLLKALKHVNIVAYLGTCLQENTVSIFMEFVPGGSISSIINRFGPLPEMVFCKYTKQILQGVAYLHENCVVHRDIKGNNVMLMPTGIIKLIDFGCARRLAWAGLNGTHSDMLKSMHGTPYWMAPEVINESGYGRKSDIWSIGCTVFEMATGKPPLASMDRMAAMFYIGAHRGLMPPLPDHFSENAADFVRMCLTRDQHERPSALQLLKHSFLERSH
[1]
  phosphorylating activity (in vitro kinase assay, autoradiography after SDS-PAGE): no detectable activity against MEK2
[2]
  RC Kinase activity (in vitro kinase assay with labelled ATP, SDS-PAGE, autoradiography): it has the ability to phosphorylate other RC Kinase polypeptides, MKK4, and MKK6
  phosphorylating activity (in vitro kinase assay, autoradiography after SDS-PAGE): showed only minor activity against MKK6
other
  RC Kinase activity (in vitro kinase assay with labelled ATP, SDS-PAGE, autoradiography): it has the ability to phosphorylate other RC Kinase polypeptides
  phosphorylating activity (in vitro kinase assay, autoradiography after SDS-PAGE): RC Kinase was able to phosphorylate itself
[3]
  RC Kinase activity (in vitro kinase assay with labelled ATP, SDS-PAGE, autoradiography): it has the ability to phosphorylate other RC Kinase polypeptides, MKK4, and MKK6
  phosphorylating activity (in vitro kinase assay, autoradiography after SDS-PAGE): RC Kinase was able to phosphorylate itself and MKK4
